Source: patent US20040259770A1, “Method for determining leukocyte activation” (Rush University Medical Center, priority 2003, published 2004)

Columns and labels:
Assay type in all cases: cell-based, human
[1] = system: eosinophils; test: Eosinophil superoxide production (cytochrome c reduction) in protein-coated tissue culture wells
Procedure: Neutrophils were isolated from venous blood of healthy adult volunteers by density gradient centrifugation through lymphocyte separation medium (BioWhittaker; Walkersville, Md.) as described previously (Haskell M. D., et al., Blood 86:4627-4637 (1995)) with one modification. Isotonicity was restored following the brief hypotonic lysis steps by the addition of 2× concentrated Hank's Balanced Salt Solution (HBSS) (Gibco; Grand Island, N.Y.) (without Ca^2+ and Mg^2+) containing 5 mM HEPES, pH 7.4. The cells were suspended in HEPES (10 mM)-buffered HBSS (with Ca^2+ and Mg^2+), pH 7.4, containing 1 milligram per milliliter of human serum albumin (HSA) (Sigma Chemical Co.) (HEPES-HBSS-HSA buffer). Neutrophil purity was routinely greater than 95 percent, with eosinophils representing the remainder of the cells. Eosinophils were isolated from the neutrophil preparations by negative selection (Hansel T. T., et al., J. Immunol. Meth. 145:105-10 (1991)) using anti-CD16 immunomagnetic beads as described by the manufacturer (Miltenyi Biotec, Inc., Auburn, Calif.). The eosinophils were suspended in HEPES-HBSS-HSA buffer. Eosinophil purity was routinely greater than 95 percent as determined by counting Wright-stained cytospin preparations. In some assays, an aliquot of the neutrophil preparation was held on ice for later use.
Superoxide production was measured essentially as described elsewhere (Motegi, Y., and H. Kita, J. Immunol. 161:4340 (1998)). Briefly, wells in a 96-well (flat bottom) tissue culture plate (Corning, Inc.; Corning, N.Y.) were coated with human milk lactoferrin (Sigma Chemical Co.) or human secretory IgA (ICN Biomedical; Aurora, Ohio) by incubation with 50 microliters of the indicated concentrations of the proteins in phosphate buffered saline (PBS) overnight at 4° C. Non-specific protein binding sites were blocked by subsequent incubation with 100 microliters of 25 milligrams per milliliter of HSA in PBS for 2 hours at 37° C., and the tissue culture wells were washed twice with PBS before use. Aliquots (5×10^4 cells) of eosinophils or neutrophils were added to the wells and were incubated in HEPES-HBSS—HSA buffer containing 50 micromolar cytochrome c (Sigma Chemical Co.) for 120 minutes at 37° C. in a Ceres UV900HDi microplate reader (Bio-Tek Instruments, Inc., Winooski, Vt.). Total incubation volume was 0.2 milliliters. Absorbance at 550 nanometers was recorded at 15-minute intervals, and superoxide production was calculated as described previously (Motegi, Y., and H. Kita, J. Immunol. 161:4340 (1998)). Results are expressed as nanomoles superoxide per 10^5 cells after subtraction of spontaneous production, which was measured in tissue culture wells coated only with HSA. GM-CSF (R & D Systems; Minneapolis, Minn.), porcine heparin (Sigma Chemical Co.), or chondroitin sulfate C (Sigma Chemical Co.) was added to the incubation mixtures in some assays as indicated.

[2] = system: neutrophils; test: Neutrophil superoxide production (cytochrome c reduction) in protein-coated tissue culture wells
Procedure: Neutrophils were isolated from venous blood of healthy adult volunteers by density gradient centrifugation through lymphocyte separation medium (BioWhittaker; Walkersville, Md.) as described previously (Haskell M. D., et al., Blood 86:4627-4637 (1995)) with one modification. Isotonicity was restored following the brief hypotonic lysis steps by the addition of 2× concentrated Hank's Balanced Salt Solution (HBSS) (Gibco; Grand Island, N.Y.) (without Ca^2+ and Mg^2+) containing 5 mM HEPES, pH 7.4. The cells were suspended in HEPES (10 mM)-buffered HBSS (with Ca^2+ and Mg^2+), pH 7.4, containing 1 milligram per milliliter of human serum albumin (HSA) (Sigma Chemical Co.) (HEPES-HBSS-HSA buffer). […] Eosinophil purity was routinely greater than 95 percent as determined by counting Wright-stained cytospin preparations. […]
Superoxide production was measured essentially as described elsewhere (Motegi, Y., and H. Kita, J. Immunol. 161:4340 (1998)). […] Aliquots (5×10^4 cells) of eosinophils or neutrophils were added to the wells and were incubated in HEPES-HBSS—HSA buffer containing 50 micromolar cytochrome c (Sigma Chemical Co.) for 120 minutes at 37° C. in a Ceres UV900HDi microplate reader (Bio-Tek Instruments, Inc., Winooski, Vt.). […] Results are expressed as nanomoles superoxide per 10^5 cells after subtraction of spontaneous production, which was measured in tissue culture wells coated only with HSA. […]

[3] = system: eosinophils; test: Eosinophil degranulation: EDN release by ELISA; details: 3 to 100 micrograms per milliliter immobilized, 4 hours at 37° C, maximum at 100 micrograms per milliliter
Procedure: Eosinophils (2×10^5) were incubated in the presence and absence of 100 picograms per milliliter of GM-CSF in RPMI 1640 containing 1 milligram per milliliter of HSA for 4 hours at 37° C. in 5 percent CO2 in tissue culture wells precoated with lactoferrin or secretory IgA as above. Total incubation volume was 0.2 milliliters. Reactions were stopped by centrifugation at 300 g for 5 minutes at 4° C., and supernatants were stored at −20° C. until measurement of eosinophil-derived neurotoxin (EDN) content by specific ELISA (MBL International, Watertown, Mass.). Spontaneous release of EDN was determined with cells incubated in HSA-coated wells.

[4] = system: eosinophils; test: Eosinophil leukotriene C4 production by ELISA; details: 1 hour
Procedure: Eosinophils (2×10^5) were incubated in the presence and absence of 100 pg/ml GM-CSF in RPMI 1640 containing 10 mM HEPES for 1 hr at 37° C. in tissue culture wells precoated with lactoferrin or secretory IgA as above with one modification. The tissue culture wells were not treated with HSA and HSA was not added to the incubation buffer to minimize loss of leukotriene C4. Total incubation volume was 0.2 ml. Reactions were stopped by centrifugation at 300 g for 5 min at 4° C., and supernatants were stored at −20° C. until measurement of leukotriene C4 content by a leukotriene C4/D4/E4 ELISA (Amersham Pharmacia Biotech; Piscataway, N.J.). Spontaneous leukotriene C4 production was determined with eosinophils incubated in untreated tissue culture wells.

B1: immobilized lactoferrin: human milk lactoferrin (Sigma) coated on tissue culture wells overnight at 4° C (protein, UniProt P02788 20-710, looked up)
Lactotransferrin: GRRRSVQWCAVSQPEATKCFQWQRNMRKVRGPPVSCIKRDSPIQCIQAIAENRADAVTLDGGFIYEAGLAPYKLRPVAAEVYGTERQPRTHYYAVAVVKKGGSFQLNELQGLKSCHTGLRRTAGWNVPIGTLRPFLNWTGPPEPIEAAVARFFSASCVPGADKGQFPNLCRLCAGTGENKCAFSSQEPYFSYSGAFKCLRDGAGDVAFIRESTVFEDLSDEAERDEYELLCPDNTRKPVDKFKDCHLARVPSHAVVARSVNGKEDAIWNLLRQAQEKFGKDKSPKFQLFGSPSGQKDLLFKDSAIGFSRVPPRIDSGLYLGSGYFTAIQNLRKSEEEVAARRARVVWCAVGEQELRKCNQWSGLSEGSVTCSSASTTEDCIALVLKGEADAMSLDGGYVYTAGKCGLVPVLAENYKSQQSSDPDPNCVDRPVEGYLAVAVVRRSDTSLTWNSVKGKKSCHTAVDRTAGWNIPMGLLFNQTGSCKFDEYFSQSCAPGSDPRSNLCALCIGDEQGENKCVPNSNERYYGYTGAFRCLAENAGDVAFVKDVTVLQNTDGNNNEAWAKDLKLADFALLCLDGKRKPVTEARSCHLAMAPNHAVVSRMDKVERLKQVLLHQQAKFGRNGSDCPDKFCLFQSETKNLLFNDNTECLARLHGKTTYEKYLGPQYVAGITNLKKCSTSPLLEACEFLRK
modifications: immobilized
notes: human milk lactoferrin (Sigma) coated on tissue culture wells overnight at 4° C
stimulation of eosinophil superoxide production (in words) ([1]; 1 to 100 micrograms per milliliter of the protein, 2 hours at 37° C): stimulated marked superoxide production
concentration giving maximum (peak) superoxide production ([1]; 2-hour time point, absence of GM-CSF): 30 micrograms per milliliter
superoxide production with immobilized lactoferrin and immobilized secretory IgA in combination ([1]; 3 or 10 micrograms per milliliter lactoferrin plus 1 or 3 micrograms per milliliter secretory IgA, n=4): additive levels of superoxide production
maximum response of superoxide production ([1]; 30 micrograms per milliliter immobilized, 2-hour time point, five assays, corrected for spontaneous production): approximately 5 nanomoles superoxide per 10^5 eosinophils
eosinophil superoxide production ([1]; 30 micrograms per milliliter immobilized, Example 3 assays (same donors as neutrophils), spontaneous value subtracted): 5.5±1.4 nanomoles per 10^5 eosinophils
stimulation of eosinophil superoxide production (in words) ([1]; immobilized at concentrations less than 3 micrograms per milliliter): did not appear to stimulate superoxide production
potency relative to immobilized secretory IgA ([1]; superoxide production, same assays): approximately one-third
stimulation of neutrophil superoxide production (in words) ([2]; 1 to 100 micrograms per milliliter immobilized, up to 2 hours): did not produce significant superoxide production
neutrophil superoxide production as percent of eosinophil superoxide production stimulated by 30 micrograms per milliliter immobilized lactoferrin ([2]; 100 microgram per milliliter immobilized lactoferrin): 25%
net release of EDN [3]: ≤ 1000 nanograms of EDN per 10^6 eosinophils
leukotriene C4 production (in words) ([4]; 3 to 100 micrograms per milliliter immobilized, no GM-CSF): stimulated only low levels of leukotriene C4
leukotriene C4 production ([4]; 10 micrograms per milliliter immobilized lactoferrin alone): 115 picograms leukotriene C4 per 10^6 eosinophils
leukotriene C4 production ([4]; 10 micrograms per milliliter immobilized lactoferrin together with 100 picograms per milliliter GM-CSF): 955 picograms leukotriene C4 per 10^6 eosinophils
